Data on three molecules can be found in patent US20210292423A1 (published 2021).

Assay [1] concerns the target human CD123 (IL3RA) on cells (human, UniProt P26951 19-378). Briefly: cell-based or functional assay.
Assay [2] concerns the target T1, human CD3δ expressed alone on HEK293F cells (human, UniProt P04234 22-171).
T1 construct: entry includes the signal peptide; also called huCD3δ
The assay can be described thus: flow cytometry, HEK293F transfected with huCD3δ. The method in brief: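 HEK293F cells transfected with huCD3δ alone, harvested 1–3 days post-transfection. Cells stained with 1 μg antibody for 30 min at 4 °C, then anti-human IgG-FITC or anti-human kappa-PE secondary plus 7-AAD for 15 min at 4 °C; binding read by flow cytometry.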

Assay [3] addresses T2, human CD3ε/δ-Fc fusion protein (soluble recombinant CD3ε/δ complex) (human, UniProt P04234 22-105).
T2 construct: also called huCD3ε/δ; huCD3; not shown: hinge, CH2, CH3 of human IgG with tag
Briefly: SPR, CD3-Fc captured, Fab 100 nM. Here is the method:
(§1) Binding was tested by SPR using a BIAcore3000 instrument run with HBS-EP buffer. Recombinant huCD3 proteins (ε/δ (PB01226), ε/γ (PB01225)) were captured at 10 μl/min via Fc-tag by anti-human Fc capture antibody MAB1302 (Millipore) immobilized on a CM5 sensor chip. Anti-CD3 Fabs were used as analytes at 100 nM with association and dissociation times of 240 sec and 300 sec, respectively at 30 μl/min. After each cycle the surfaces were regenerated by a 2 min pulse of 10 mM glycine buffer pH2.5.
A general note: SPR reads the build-up and loss of mass on a sensor chip optically.

Assay [4] deals with recombinant huCD3ε/γ protein with Fc-tag (PB01225) (human, UniProt P07766 23-126; P09693 23-116). The assay can be described thus: SPR, CD3-Fc captured, Fab 100 nM. Here is the method:
as §1

The target in assay [5] is T2, human CD3ε/δ-Fc fusion protein (soluble …). The assay can be described thus: SPR Biacore, CD3εδ-Fc captured, Fab analyte. How it is done: (§2) Binding affinities of anti-CD3 binding Fabs or CODV-Fabs were measured by surface plasmon resonance (SPR) using a Biacore3000 instrument (GE Healthcare). Assay buffer was HBS-EP (BR-1001-88, GE Healthcare). Capture of CD3ε/δ-Fc fusion proteins was achieved using the human antibody capture kit (GE Healthcare). […] The CD3εδ-Fc fusions proteins were captured at 10 μl/min to approx. 70 RU to yield Rmax values of 30 RU. Binding kinetics with the anti-CD3 Fabs or CODV-Fabs was measured at 30 μl/min for 240 sec. and 600 sec. for association and dissociation phase, respectively. Twofold dilutions of Fabs from 3 to 400 nM in assay buffer were used. All Fab concentrations were run in duplicate together with duplicate buffer blanks for double referencing. Regeneration of the capture surface was performed with a 1 min injection of 3M MgCl2 solution at 30 μl/min. For data analysis the BIAevaluation software v.4.1 (GE Healthcare) was used. Data were fit globally using a 1:1 Langmuir model with mass transfer.

Assay [6] concerns the target T3, human CD3 (TCR complex) on primary human T cells or Jurkat cells (human, UniProt P07766 23-207).
T3 construct: on the cells it stands in the whole TCR/CD3 complex; also called Jurkat E6-1 (expressing human TCR)
Briefly: flow cytometry, primary human T cells. How it is done: The binding capacity of the CD3-Fabs was determined by flow cytometry. Primary human T cells were used as target cells. Therefore, peripheral blood mononuclear cells (PBMCs) were isolated from 200 ml peripheral blood of healthy donors treated with EDTA by Ficoll density centrifugation. 15 ml Histopaque (Sigma-Aldrich) was preloaded on a 50 ml Leucosep-Tube (Greiner bio-one). Blood was diluted with autoMACS Rinsing Buffer+1% BSA (Miltenyi Biotec) and loaded on the membrane of a total of ten prepared tubes. Tubes were centrifuged without brake for 10 min at 1000 xg. PBMCs were collected and washed with autoMACS Rinsing Buffer+1% BSA three times. Finally, PBMCs were resuspended in autoMACS Running Buffer (Miltenyi Biotec) for isolation of T lymphocytes by autoMACSpro technology using the Pan T Cell isolation Kit (Miltenyi Biotec) according to manufacturer's instructions. Purity of separated T cells was analyzed by MACSQuant flow cytometry using the human 7-Color Immunophenotyping Kit (Miltenyi Biotec). Isolated T cells were resuspended in Stain Buffer with FBS (BD Pharmingen) and 1E5 cells in 100 μl per well were seeded in 96-well U-bottom suspension culture plates (Greiner bio-one). Fab antibodies were diluted 1:3 in serial in PBS (Invitrogen) and 5 μl each were added to the cells at a final maximum concentration of 30000 ng/ml. The assay was incubated for 45 min at 4° C. Cells were washed twice with Stain Buffer with FBS and 1 μg secondary antibody Goat F(ab′)2 Anti-Human kappa-FITC (Beckman Coulter, #732621) per well was added in 100 μl Stain Buffer with FBS per well. The assay was incubated for 20 min at 4° C. and washed twice afterwards. Cells were resuspended in 150 μl Stain Buffer with FBS per well and were measured using the MACSQuant (Miltenyi Biotec) or LSRII (BD) flow cytometer. Further data analyses were performed using the FlowJo software (Tree Star, Inc.). Read out was percentage of cells positive for antibody binding. Cells treated only with the secondary but no primary antibody were used to set the gates. EC50 Curves were calculated by XLfit (Algorithm 205), EC50 values were calculated as inflection point of the slope (data are shown in table 6).
For orientation: Flow cytometry measures light scatter and fluorescence of single cells or particles in a stream.

Assay [7] deals with T2, human CD3ε/δ-Fc fusion protein (soluble …). The assay can be described thus: SPR Biacore, Fab. Here is the method:
as §2

The target is the same in assay [8]. Briefly: SPR Biacore, Fab. Here is the method: as §2
The source holds these as a separate data set.

Assay [9] addresses T4, human CD3ε and CD3δ co-expressed on HEK293F cells (human, UniProt P07766 23-207; P04234 22-171).
T4 construct: also called huCD3ε/δ (transfected cells); huCD3e + huCD3d
The assay can be described thus: flow cytometry, transfected HEK293F. Here is the method:
(§3) To analyze binding of antibodies to human CD3ε and human CD3δ expressed on the surface of cells, HEK293F cells were transfected with both constructs either alone or in co-transfection and signals were measured by flow cytometry. For transfection procedure FuGENE HD Transfection Reagent (Promega, #E2311) was used according to manufacturer's protocol.
(§4) Antibodies for staining were seeded at 1 μg in 50 μl per well Stain Buffer with FBS (BD Pharmingen) in 96-well U-bottom suspension culture plates (Greiner bio-one). Harvested transfected cells were resuspended in Stain Buffer with FBS and were added at 50 μl per well to the antibodies. Cells were incubated at 4° C. in the dark for 30 min and were washed twice. 0.5 μg secondary antibody Goat F(ab′)2 Anti-Human IgG-FITC (Beckman Coulter, #732598) or Goat F(ab′)2 Anti-Human kappa-PE (Southern Biotech, #206209), respectively, in combination with 0.5 μg 7-AAD per well was added in 100 μl Stain Buffer with FBS. Cells were incubated at 4° C. in the dark for 15 min and were washed twice. For measurement, cells were resuspended in 200 μl Stain Buffer with FBS. Cells were measured using the MACSQuant (Miltenyi Biotec) or LSRII (BD) flow cytometer, respectively. Further data analyses were performed using the FlowJo software (Tree Star, Inc.).

In assay [10] the target is T5, human CD3ε expressed alone on HEK293F cells (human, UniProt P07766 23-207).
T5 construct: also called huCD3ε
The assay can be described thus: flow cytometry, transfected HEK293F. Here is the method:
as §3, §4

T2 sequence (chain, as listed by the source mutant, chain 1 of 2): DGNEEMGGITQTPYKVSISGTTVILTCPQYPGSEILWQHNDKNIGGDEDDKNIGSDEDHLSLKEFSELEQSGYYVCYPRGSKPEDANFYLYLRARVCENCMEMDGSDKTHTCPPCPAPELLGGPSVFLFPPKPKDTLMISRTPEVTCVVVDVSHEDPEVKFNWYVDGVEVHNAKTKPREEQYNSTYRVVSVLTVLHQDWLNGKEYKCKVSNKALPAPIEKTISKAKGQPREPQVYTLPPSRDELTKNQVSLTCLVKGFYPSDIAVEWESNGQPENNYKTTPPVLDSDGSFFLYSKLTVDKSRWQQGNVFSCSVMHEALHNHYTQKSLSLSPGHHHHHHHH
T2 sequence (P04234 22-105, stated change not applied, chain 2 of 2): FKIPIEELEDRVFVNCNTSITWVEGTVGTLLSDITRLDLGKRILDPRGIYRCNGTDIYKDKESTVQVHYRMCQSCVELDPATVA
T1 sequence (P04234 22-171 limits assumed, stated change not applied): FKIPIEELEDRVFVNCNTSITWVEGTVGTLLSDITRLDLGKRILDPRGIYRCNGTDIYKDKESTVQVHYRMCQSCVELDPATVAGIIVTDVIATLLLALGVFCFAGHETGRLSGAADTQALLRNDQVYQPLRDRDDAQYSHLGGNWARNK
human CD123 (IL3RA) on cells, sequence (P26951 19-378): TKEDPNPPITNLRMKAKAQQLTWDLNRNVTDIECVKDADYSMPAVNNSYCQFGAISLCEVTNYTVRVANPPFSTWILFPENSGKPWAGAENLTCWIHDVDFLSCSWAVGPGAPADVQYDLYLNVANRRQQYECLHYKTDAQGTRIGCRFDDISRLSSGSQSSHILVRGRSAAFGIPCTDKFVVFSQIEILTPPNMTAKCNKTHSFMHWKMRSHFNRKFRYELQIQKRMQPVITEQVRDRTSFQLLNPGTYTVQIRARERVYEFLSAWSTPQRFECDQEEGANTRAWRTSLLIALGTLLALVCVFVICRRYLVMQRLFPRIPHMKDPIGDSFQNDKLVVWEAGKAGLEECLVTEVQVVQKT

B1: CODV-Fab 7G3x18F5 antibody-like binding protein (bispecific antibody)
light: DVLMTQTPVSLSVSLGGQVSISCRSSQSLVHTNGNTYLSWYLQKPGQSPQLLIYKVSNRLSGISDRFSGSGSGTDFTLKISRVEPDDLGVYYCGQGTHYPFTFGAGTKLELKGQPKAAPDFVMTQSPSSLTVTAGEKVTMSCKSSQSLLNSGNQKNYLTWYLQKPGQPPKLLIYWASTRESGVPDRFTGSGSGTDFTLTISSVQAEDLAVYYCQNDYSYPYTFGGGTKLEIKTKGPSRTVAAPSVFIFPPSDEQLKSGTASVVCLLNNFYPREAKVQWKVDNALQSGNSQESVTEQDSKDSTYSLSSTLTLSKADYEKHKVYACEVTHQGLSSPVTKSFNRGEC
heavy: EVQLQQSGPELVKPGASVKMSCKASGYTFTDYYMKWVKQSHGKSLEWIGDIIPSNGATFYNQKFKGKATLTVDRSSSTAYMHLNSLTSEDSAVYYCTRSHLLRASWFAYWGQGTLVTVSASEVQVVETGGSLVQPGKSLKLTCATSGFTFTNAWMHWVRRSPEKQLEWVAQIKDKSNNYATYYAESVKGRFTISRDDSKSSIYLQMNSLKEEDTAIYYCRYVHYRFAYALDAWGRGTSVSVSSRTASTKGPSVFPLAPSSKSTSGGTAALGCLVKDYFPEPVTVSWNSGALTSGVHTFPAVLQSSGLYSLSSVVTVPSSSLGTQTYICNVNHKPSNTKVDKKVEPKSCDKTHTHHHHHH
For the molecule B1, the “Activity EC50 [ng/ml], cytotoxic assay on THP-1 with human T cells” value in assay [1] stood at 61 ng/mL.

B2: 4B4-D7 Fab (Fab, V domains shown)
VH: EVQLVETGGRLVQPGRSLKLTCATSGFTFSNAWMHWVRQSPEKQLEWVAQIKARSNNYATYYAESVKGRFTISRDDSKSTIYLQMNSLKEEDTAIYYCRGTYYASKPFDYWGQGVMVTVSS
VL: DVVMTQTPVSLSVSLGGQVSISCRSSQSLVHDNGNTYLSWSLQRPGQSPQVLIYKVSNRFSGTSDRFTGSGSGTDFTLKISRVEPDDLGVYYCGQGTQYPFTFGSGTKLEIKR
notes: also called BDW-4B4-D7
On to B2, for which the binding result in assay [2] was “no binding (tested: <20% of binding of huCD3e + huCD3d)”. Besides, the “RU of Fab binding at 100 nM” value in [3] was found to be 11 RU; in assay [4], 3 RU. Moreover, the Kd in assay [5] turned out to be 27 nM; in [7] it was 8.79 nM; in assay [8], 27 nM. The figures for the koff in assay [5], in [7] and in assay [8] were 0.0029 s⁻¹, 0.00285 s⁻¹ and 0.0029 s⁻¹, respectively. The on-rate (kon) in [5] turned out to be 110000 M⁻¹ s⁻¹; in [7], 326000 M⁻¹ s⁻¹; in [8], 110000 M⁻¹ s⁻¹. The molecule further showed an EC50 in assay [6] of 15.3 nM. The figures for the “% antibody positive transfected cells” value in assay [9] and in assay [10] were 69.5% and 71.5%, respectively.

B3: 4E7-C9 Fab (Fab, V domains shown)
VH: EVQVVETGGSLVQPGKSLKLTCATSGFTFSNAWMHWVRQSPEKQLEWVAQIKDKSNNYATYYAESLKGRFTISRDDPKRSIYLQMNSLREEDTAIYYCRYVHYGIGYAMDAWGQGTSVTVSS
VL: DVVMTQTPVSLSVSLGGQVSISCRSSQSLEHNNGNTYLSWYLQKPGQSPQPLIYKVSNRFSGISDRFSGSGSGTDFTLKISRVEPDDLGVYYCGQGTQYPFTFGPGTKLELKR
notes: also called BDX-4E7-C9
B3: the binding result in assay [2] was “no binding (tested: <20% of binding of huCD3e + huCD3d)”. The entries for the “RU of Fab binding at 100 nM” value in assay [3] and in assay [4] were 8 RU and 6 RU, respectively. The Kd in assay [5] and in assay [8] was 17 nM in each case. The results for the off-rate constant (koff) in [5] and in assay [8] were 0.0016 s⁻¹ and 0.0015 s⁻¹, respectively. Also, the kon in [5] and in assay [8] was 89000 M⁻¹ s⁻¹ throughout. In assay [6], this molecule yielded an EC50 of 6.2 nM. The “% antibody positive transfected cells” value worked out at 66.4% in [9] and 69% in assay [10].

Usually Kd stands for the concentration at which binding is half-saturated. A word on the koff: it is the first-order rate constant of dissociation. Usually kon stands for the rate constant with which the complex forms. Broadly, the EC50 is the concentration that produces a half-maximal response.
